From paper PMC11077054

Tests used:
nYFP-CmoNAC1 (pumpkin) [1] = molecular target: nYFP-CmoNAC1 (pumpkin)
nYFP-CmoNAC1 (pumpkin) [2] = molecular target: nYFP-CmoNAC1 (pumpkin); remark: listed apart in the source

LUC/RLU ratio of the reporter with the NACbs of the CmoNCED6 promoter in tobacco: CmoNAC1 + CmoDREB2A against CmoNAC1 alone (nYFP-CmoNAC1 (pumpkin) [1]): 87%
LUC/RLU ratio of the reporter with the NACbs of the CmoRBOHD1 promoter in tobacco: CmoNAC1 + CmoDREB2A against CmoNAC1 alone (nYFP-CmoNAC1 (pumpkin) [1]): 67%
LUC/RLU ratio of the reporter with the NACbs of the CmoAKT1;2 promoter in tobacco: CmoDREB2A + CmoNAC1 against CmoNAC1 alone (nYFP-CmoNAC1 (pumpkin) [2]): 99%
LUC/RLU ratio of the reporter with the NACbs of the CmoHKT1;1 promoter in tobacco: CmoDREB2A + CmoNAC1 against CmoNAC1 alone (nYFP-CmoNAC1 (pumpkin) [2]): 107%
Substance: CmoDREB2A-cYFP (natural protein)
